Data as given in the supplement of paper PMC9170038.

Test system: MS2 coat protein
Test: apparent KD of MS2 coat protein; designed switch direction (-1 OFF switch, 1 ON switch): -1; higher = weaker reporter binding
In short: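 For each design, the apparent KD is the median over clusters of curves fitted to normalised cluster fluorescence. Clusters held RNA switches with common flanks, transcribed on Illumina chips by stalled E. coli RNA polymerase. These were titrated with SNAP-549-labelled MS2 coat protein, doubling from 0.7 or 1.5 nM to 3 µM, without input, with 200 uM small-molecule ligand, or with an oligonucleotide input.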

[1] = input ligand: microRNA oligo, concentration not stated
[2] = Eterna round: R95, input ligand: FMN 200 uM
[3] = Eterna round: R95, input ligand: microRNA oligo, concentration not stated
[4] = Eterna round: R95, input ligand: none

Sequence	apparent KD of MS2 coat protein (input ligand: FMN 200 uM)	apparent KD of MS2 coat protein [1]	apparent KD of MS2 coat protein (input ligand: none)	apparent KD of MS2 coat protein [2]	apparent KD of MS2 coat protein [3]	apparent KD of MS2 coat protein [4]
CCUAGUUGGUAAGGAUAUCCUACACUGUUCUGACCCGGGCAUGCUACAUGAGGAUCACCCAUGUGGGAGAAGGUGCGUCAUCGC [Design 15] (Eterna round: R96, puzzle: Exclusion NG 2)	30.5 nM	27.1 nM	37.3 nM			
GAUUAUGCGAGCUUUAGGGACAUGAGGAUCACCCAUGUUCGUCUUAUUAGUCUGGGUACACUGACAUACCUAAAUCU [JMF 71] (puzzle: Sensor v3, turn-off variant 1)				24.6 nM	35.2 nM	25.4 nM
GCGCCAUCGUGAGAUGGCGUAUAUACAUGAGGAUCACCCAUGUAGGAUAUCGAUUGCUUUGCAGUCGAGAAGGGCGUGUAAUUU [JL ENG3 3.92] (Eterna round: R96, puzzle: Exclusion NG 3)	45.7 nM	22.5 nM	34.8 nM			
ACAUGUAUUGCAGGAUAUGGGACACAUGAGGAUCACCCAUGUGACUACAUGUCAUACCACGCGUCUCAGAAGGGUAUGUACAUG [Ex NG2 #39] (Eterna round: R96, puzzle: Exclusion NG 2)	27.7 nM	14 nM	21.5 nM			
UCACUACCGCAAGGAUAUGUUGUCUGACACGCUGCGUGACAUGAGGAUCACCCAUGUGCUAGUUCGCAGAAGGUGCGGAAUGUG [Eternabot solution 34] (Eterna round: R96, puzzle: Exclusion NG 2)	63.2 nM	9.98 nM	17.1 nM			
AUUAGUAUCUAGGAUAUCUAGUACAUAGUAUCUAGAGAAGGAGAUACAUGAGGAUCACCCAUGUUCUGUGAUCU [Exclusion 6 - 2:a] (puzzle: Exclusion 6)					155 nM	
ACAUGAGGAUCACCCAUGUCGAGUACAUGAGGAUCACCCAUGUAGGAUAUGGUUCGCUUUGCGUGCUAGAAGGAUAUGUGAUGA [salish99_ExNG3_r04_512] (Eterna round: R96, puzzle: Exclusion NG 3)	488 nM	229 nM	326 nM			
AAAUAGUGAGGAUAUUAGUUGUACGUCAAUAGACGUAUAAGUGAGAAGGCACAUGAGGAUCACCCAUGUUCCUG [Omei Ex4 Mod of Mat's R95 mod of Omei v8] (Eterna round: R97, puzzle: Exclusion 4)	34.4 nM		18.3 nM			
AUCAACGUGUUAGGAUAUAAGCCUAAAAGAGACUUAGAAGGGACAUGAGGAUCACCCAUGUCGGGCGCCCAAGCUAUGCGACCU [Eternabot solution 4] (Eterna round: R96, puzzle: Exclusion NG 1)	32.8 nM	17.4 nM	26.3 nM			
AGCAGACGAGGAUAUAAAUUUAAAUACAUGAGGAUCACCCAUGUAUAAAUGUAUUUAAAUUUAGAAGGCGUCUGCU [E5/12-A1] (Eterna round: R97, puzzle: Exclusion 5)	793 nM		710 nM			
AGUUGGCGAGGAUAUACAUGAGGAUCACCCAUGUGAGAGAAUAAAGUGAGGAAGAAAAGUAGAAGGCGCUGACG [Mat - Exclusion 3 - Mod of Salish D7] (puzzle: Exclusion 3)				61.1 nM	52 nM	53.8 nM
UCGUUCCGUGUAGGAUAUUGGCCUCCCUCGGGCCGAGAAGGACAUGAGGAUCACCCAUGUAUGUUAUUAUCGCGCGUGGCGCAU [Design 89] (Eterna round: R96, puzzle: Exclusion NG 1)	113 nM	14.5 nM	20.8 nM			
CCUCGACAUGAGGAUCACCCAUGUCAGGAUAUUGUGUUUUUGGUUUUUUACCUUUAGGCAAGAAGGGAUGUGUG [LRO-Excl1-18] (puzzle: Exclusion 1)					14.4 nM	
AACCAGCGAGGAUAUGCUUGAGCUUGUUCUGGUCAGAAUCGACUUGAGGAUCACCCAAGUAGAAGGUGCUGACG [EX2 #60] (Eterna round: R97, puzzle: Exclusion 2)	18.7 nM		16.9 nM			
AGGAGUGAAGGAUAUACAUGAGGAUCACCCAUGUGGGAGGAAAGAGGUGAUGGAGAUAGUAGAAGGUCAGGAUG [JR_Exclusion3_Sub005] (puzzle: Exclusion 3)				99.9 nM	93.9 nM	116 nM
CUAGCUAUUGUAGGAUAUCGAUGUGUUUCACAUCGAGAAGGACAUGAGGAUCACCCAUGUGAAGGAUCGUGAGAUCCAAGCUAG [JL ENG1 3.77] (Eterna round: R96, puzzle: Exclusion NG 1)	128 nM	25.1 nM	24.1 nM			
GCAUCCAAUGUGAGGAUAUACCUCUGGAUACAGAGGUAGAAGGCACAUGAGGAUCACCCAUGUUACUAGGAUGC [Fiskers BMX 4 - 36] (puzzle: Brourd's mod of Exclusion 4)					19.3 nM	
CCUUCUCGUGUCAGGAUAUCCACUCAUCGAAAUUAGGAGAAGGGACAUGAGGAUCACCCAUGUAUACAUGCCAG [Cequesar] (puzzle: Brourd's mod of Exclusion 4)					61.7 nM	
ACGCAACAUGAGGAUCACCCAUGUCAGGAUAUCCGGCGAAAACCCAAGAAGGGAAACCGGAGAAGGGACAAAGG [ChP 04-04-2015 #1] (puzzle: Exclusion 1)				134 nM	181 nM	189 nM
AGCUGUGGCCGAGGAUAUUACGAACCAUGGAAAACCAUGGAAACUCUACAUGAGGAUCACCCAUGUAAGAAGGCGGUCUCAGCA [Eli eng2 - 024] (Eterna round: R96, puzzle: Exclusion NG 2)	47.5 nM	11.7 nM	16.4 nM			
GGCCGUAAUAAGGAUAUCACUAGCUUCGGCUAGUGAGAAGGUAUUACAUGAGGAUCACCCAUGUGAUUAGGCCA [E6/5-B1] (Eterna round: R97, puzzle: Exclusion 6)	98.1 nM		25.2 nM			
UGCCGUAGAGGAUAUACGUAGAAAUAGAUUCAUGUAAAACUACAUGAGGAUCACCCAUGUAGAAGGCUAUGGCU [JL-ex2-4.32 Eli mod] (Eterna round: R97, puzzle: Exclusion 2)	243 nM		25.3 nM			
AAACCGCAAGGAUAUUGUGGCGCUGACAUGAGGAUCACCCAUGUGGUGCUAGUCCCGCUGCGAGAAGGUGUGUAAA [Enesedrave] (puzzle: Exclusion 5)					12.3 nM	
CGAAGUAGAAACCGAUCCUACAUGAGGAUCACCCAUGUAGCAAGACGUGCACGCGAAGCUCGUCAGACUACCAGAAG [salish99_TOv1_r3_004] (puzzle: Sensor v3, turn-off variant 1)				343 nM	352 nM	332 nM
GUCAGGAAUGUAGGAUAUCUGCACGUUUAGUGCAGAGAAGGACAUGAGGAUCACCCAUGUAUAGUAGCUUCGGCUACACCUGAC [ENG1-A2] (Eterna round: R96, puzzle: Exclusion NG 1)	19.3 nM	12.5 nM	15.9 nM			
CUCAUGUGAGGAUAUGUGAUCAACCUUCUGUAUAGAUGAUGACAGAAGGCACAUGAGGAUCACCCAUGUAGAUC [Ex4 - 3 - 18] (puzzle: Exclusion 4)					46.7 nM	
